Measured values reported in PMC12880746.

Legend:
[1] = target: CspA-His6 (Clostridioides difficile); assay: SEC; individually Ni-affinity-purified Csp-His6 proteins on Superdex 200 Increase 10/300 GL; 200 mM NaCl, 10 mM Tris-HCl pH 7.5, 5% glycerol, 1 mM dithiothreitol; apparent MW from gel filtration standard
[2] = target: CspB-His6 (Clostridioides difficile); assay: as above
[3] = target: CspC-CPD-His6 (Clostridioides difficile); assay: SEC; elution fraction of a CspC-CPD-His6:CspA co-affinity purification (proteins co-expressed in E. coli) on Superdex 200 Increase 10/300 GL; 200 mM NaCl, 10 mM Tris-HCl pH 7.5, 5% glycerol, 1 mM dithiothreitol; fractions on SDS-PAGE; complex peak re-run on SEC; also run with TA and CaCl2 without difference

## CspA-His6 (domain or fragment)
[1]
  stoichiometry N: 2

## CspB-His6 (domain or fragment)
[2]
  stoichiometry N: 2

## untagged CspA (CspA_(583-1132)) (domain or fragment)
[3]
  stoichiometry N (ratio CspA:CspC-CPD-His6): 1
